B1: purified budding yeast tubulin heterodimer, Tub1-WT (internal 6X-His) with Tub2 [S. cerevisiae] / GST-TOG1/2 (the two TOG domains of Stu2 fused to a GST tag, Stu2 1-590) [S. cerevisiae] (parent complex)
chain 1: MREVISINVGQAGCQIGNACWELYSLEHGIKPDGHLEDGLSKPKGGEEGFSTFFHETGYGKFVPRAIYVDLEPNVIDEVRNGPYKDLFHPEQLISGKEDAANNYARGHYTVGREILGDVLDRIRKLADQCDGLQGFLFTHSLGGGTGSGLGSLLLEELSAEYGKKSKLEFAVYPAPQVSTSVVEPYNTVLTTHTTLEHADCTFMVDNEAIYDMCKRNLDIPRPSFANLNNLIAQVVSSVTASLRFDGSLNVDLNEFQTNLVPYPRIHFPLVSYSPVLSKSKAFHESNSVSEITNACFEPGNQMVKCDPRDGKYMATCLLYRGDVVTRDVQRAVEQVKNKKTVQLVDWCPTGFKIGICYEPPTATPNSQLATVDRAVCMLSNTTSIAEAWKRIDRKFDLMYAKRAFVHWYVGEGMEEGEFTEAREDLAALERDYIEVGADSYAEEEEF
chain 2: MREIIHISTGQCGNQIGAAFWETICGEHGLDFNGTYHGHDDIQKERLNVYFNEASSGKWVPRSINVDLEPGTIDAVRNSAIGNLFRPDNYIFGQSSAGNVWAKGHYTEGAELVDSVMDVIRREAEGCDSLQGFQITHSLGGGTGSGMGTLLISKIREEFPDRMMATFSVLPSPKTSDTVVEPYNATLSVHQLVEHSDETFCIDNEALYDICQRTLKLNQPSYGDLNNLVSSVMSGVTTSLRYPGQLNSDLRKLAVNLVPFPRLHFFMVGYAPLTAIGSQSFRSLTVPELTQQMFDAKNMMAAADPRNGRYLTVAAFFRGKVSVKEVEDEMHKVQSKNSDYFVEWIPNNVQTAVCSVAPQGLDMAATFIANSTSIQELFKRVGDQFSAMFKRKAFLHWYTSEGMDELEFSEAESNMNDLVSEYQQYQEATVEDDEEVDENGDFGAPQNQDEPITENFE
chain 3: MSGEEEVDYTTLPLEERLTYKLWKARLEAYKELNQLFRNSVGDISRDDNIQIYWRDPTLFAQYITDSNVVAQEQAIVALNSLIDAFASSSLKNAHNITLISTWTPLLVEKGLTSSRATTKTQSMSCILSLCGLDTSITQSVELVIPFFEKKLPKLIAAAANCVYELMAAFGLTNVNVQTFLPELLKHVPQLAGHGDRNVRSQTMNLIVEIYKVTGNNSDLLEEILFKKLKPIQVKDLHKLFAKVGDEPSSSKMLFEWEKRELEKKRSQEEEARKRKSILSNDEGEYQIDKDGDTLMGMETDMPPSKQQSGVQIDTFSMLPEETILDKLPKDFQERITSSKWKDRVEALEEFWDSVLSQTKKLKSTSQNYSNLLGIYGHIIQKDANIQAVALAAQSVELICDKLKTPGFSKDYVSLVFTPLLDRTKEKKPSVIEAIRKALLTICKYYDPLASSGRNEDMLKDILEHMKHKTPQIRMECTQLFNASMKEEKDGYSTLQRYLKDEVVPIVIQIVNDTQPAIRTIGFESFAILIKIFGMNTFVKTLEHLDNLKRKKIEETVKTLPNFSIASGSTHSTIETNKQTGPMENKFLLK

Variants of: B1
Experiment: in vitro binding assay: unbound tubulin in supernatant after GST-TOG1/2 incubation, α-tubulin western blot; highest GST-TOG1/2 concentration, est. ~5000 nM read from x axis; low constant tubulin concentration; n=3 experiments; parent: 14; read off a plot

Row | screen value [%] | Variant
1 | ~71 | chain 1 V410I
2 | ~85 | chain 1 V410A

Reference: paper PMC9236607, “TUBA1A tubulinopathy mutants disrupt neuron morphogenesis and override XMAP215/Stu2 regulation of microtubule dynamics” (eLife, 2022)
